Test results: doi:10.1101/2022.06.21.496751 (bioRxiv, 2022)

B1: Ab159 recombinant monoclonal antibody (IgG) (antibody, V domains shown)
VH: QVQLVESGGGLVKPGGSLRLSCAASGFTFNNAWMSWVRQAPGKGLEWVGRIKSKTDGGTTDYAAPVKGRFTFSRDDSKNTLYLQMSSLKTEDTALYYCTTADYDILTGTPASPYWGQGTLVTVSS
VL: DIQMTQSPSSLSASVGDRVTITCRASQSITNYLNWYQQKPGKAPKFLIYAASSLQGGVPSRFRGSGSGTDFTLTISSLQPEDFATYYCQQTYSTLWTFGQGTKVEIK
B2: Ab188 recombinant monoclonal antibody (IgG) (antibody, V domains shown)
VH: EVQLVESGGGLVQPGGSLRLSCAASGFTFINYKMNWVRQAPGKGLEWVSYISSGSDAIYYADSVKGRFTISRDNAKNSLYLQMNSLRDEDTALYYCARGGGYNYGECMDVWGQGTTVTVSS
VL: not shown
B3: Ab326 recombinant monoclonal antibody (IgG) (antibody, V domains shown)
VH: EVQLVESGGGVVQPGRSLRLSCAASGFTFSHYPMHWVRQAPGRGLEWVAVISYDGSNQHYVDSVKGRFTISRDNSKNTLYLQMNSLRAEDTAVYFCASLITMIRGVPDYWGQGTLVTVSS
VL: DIQMTQSPSSLSASVGDRVTITCRASQSISNYLNWYQQKPGKAPNLLIFAASSLQSGVPSRFSGSGSGTEFTLTISSLQPEDFAAYYCLQTYSTPRTFGQGTRLEIK
B4: Ab354 recombinant monoclonal antibody (IgG) (antibody, V domains shown)
VH: QVQLVQSGAEVKKPGASVTVSCKASGFLFTGYYMHWVRQAPGQGLEWMGWINPNSGASNYTRKFQGRVTMTRDTSISATYMKLSRLTSDDTAVYYCARDLAFSMVRGALDYWGQGTLVTVSS
VL: QLVLTQPPSASGSPGQSVTISCTGTSSDVGGYNYVSWYQHHPGKAPKLMIYEVSKRPSGVPDRFSGSKSGNTASLTVSGLQAEDEADYYCNSYAGNNNWVFGTGTKVTVL
B5: Ab445 recombinant monoclonal antibody (IgG) (antibody, V domains shown)
VH: EVQLVESGGGVVQPGTSPRLSCAASGFTFSNSGMHWVRQAPGKGLEWVAVIWYDGSKKYYVDSVKGRFTISRDNSKNTLYLQMNSLRAEDTAVYYCARDGTVAVRGVMNPFFDYWGQGTLVTVSS
VL: DIQLTQSPSSLSASVGDRVTITCQASQDISNYLNWYQQIPGKAPKLLIYDASNLETGVPSRFSGSGSGTDFTFTISSLQPEDIATYYCQQYDNLPYTFGQGTKLEIK
B6: Ab496 recombinant monoclonal antibody (IgG) (antibody, V domains shown)
VH: EVQLVQSGPEVKKPGTSVKVSCKASGFIFTNSAVQWVRQARGQRLEWIGWIVVGSGNPNYAQKFQERVTITRDRSTSTAYMELSSLTSEDTAVYYCAAFPYYYDNSGSGPWGQGTLVTVSS
VL: DIQLTQSPSSLSASVGDRVTITCQASQDIRNNLNWYQQIPGKAPKLLIYDASNLETGVPSRFSGSASGTDFTFTISSLQPEDVATYYCQQYANLPPFTFGPGTKVDIK

Tests used:
[1] = target: full-length Spike of SARS-CoV-2 (UniProtKB-P0DTC2) expressed on 293T cells (SARS-CoV-2, UniProt P0DTC2); assay: flow cytometry on cells
[2] = target: Spike of the SARS-CoV-2 Omicron (BA.1) variant expressed on 293T cells (SARS-CoV-2, Omicron BA.1, strain); assay: flow cytometry on cells

| Binder | binding result [1] | binding result [2] |
| --- | --- | --- |
| B1 | binds | – |
| B2 | binds | binds |
| B3 | binds | – |
| B4 | binds | – |
| B5 | binds | – |
| B6 | binds | – |
